B1: CAMK2D (parent)
chain: IVRLHDSISEEGFHYLVFDLVTGG

Variants of: B1
Experiment: protein stability index of a GFP-peptide fusion (GPS, HEK-293T) (PSI 1-6); higher = more stable
Settings: c terminus: a fixed tail appended
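Note: lentivirally expressed fusions sorted by FACS into six bins by GFP to DsRed ratio, PSI derived from sequencing read proportions per bin multiplied by bin number.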

Variant | protein stability index
IVRLHDSISEEGFHYLVFDLATGG | 1.11
IVRLHDSISEEGPHYLVFDLVTGG | 1.08
ILRLHDSISEEGFHYLVFDLVTGG | 2.69
IVRLHDSISEEGFHYLVFDLVTGC | 2.4
IVVLHDSISEEGFHYLVFDLVTGG | 2.23
IVRLHDSISEEGFHYLVFLLVTGG | 2.47
IVRLHDSISEEGFHYLVFDLVTIG | 2.57
IVRLHDSISEEGFHYLVFDIVTGG | 3.09
IVRLHDSISEEGFEYLVFDLVTGG | 1.83
IVRLHDSISEEGQHYLVFDLVTGG | 1.37
IVRLHDSISEEGEHYLVFDLVTGG | 2.6
IVPLHDSISEEGFHYLVFDLVTGG | 2.28
IVRLHDSISEEGFHYLVFYLVTGG | 3.34
IVRLHDSISENGFHYLVFDLVTGG | 3.39
IVRLHDSISEEGFHHLVFDLVTGG | 1.2
IPRLHDSISEEGFHYLVFDLVTGG | 1.46
IVRLSDSISEEGFHYLVFDLVTGG | 3.02
IVRLHDSISEEGFHYLWFDLVTGG | 2.39
IVRLHDSISEEGFHYLRFDLVTGG | 2.13
IVRLHDLISEEGFHYLVFDLVTGG | 2.56
IVRLHDHISEEGFHYLVFDLVTGG | 3.68
IVRLHDSISEEGFHYLVFDLVTGE | 4.45
IVRLHDSISEEGFHYLVFDMVTGG | 3.24

Variant | protein stability index
IVRLHDSISEEGFHYLVFDLQTGG | 2.38
IVRLHDSISFEGFHYLVFDLVTGG | 2.4
IVRLHDSISEEGFHWLVFDLVTGG | 2.7
IVRLHDSISEEGFHYLVFDLYTGG | 3.1
IVRLHDSISEEGFHILVFDLVTGG | 2.54
IVRLHDSISEYGFHYLVFDLVTGG | 3.26
MVRLHDSISEEGFHYLVFDLVTGG | 3.44
IVRLHDSISEEGFHYLVFDLVHGG | 2.24
IVRLHDSIDEEGFHYLVFDLVTGG | 2.36
IVRLHDSISEEIFHYLVFDLVTGG | 2.16
IVRLHDSISEEGFHYLVFDNVTGG | 2.25
PVRLHDSISEEGFHYLVFDLVTGG | 1.25
IVRLHDSIQEEGFHYLVFDLVTGG | 4.38
IVRLHDSISEEGFHYLVFDLVYGG | 3.62
IVRLHDSISEEGFHYLVFDLVTHG | 2.88
IVRLHDSHSEEGFHYLVFDLVTGG | 3.29
IVRLHNSISEEGFHYLVFDLVTGG | 1.95
IVRLHPSISEEGFHYLVFDLVTGG | 4.25
IVRLHDSIGEEGFHYLVFDLVTGG | 1.99
IVRTHDSISEEGFHYLVFDLVTGG | 1.29
IVRLHDSISMEGFHYLVFDLVTGG | 2.53
IVRLHDSISEEGFHYLLFDLVTGG | 1
IVRLHDSISEEGFHYQVFDLVTGG | 2.04

Variant | protein stability index
IVRLHDSISEEGFHYLVFKLVTGG | 2.88
IVRLHDSISEEGWHYLVFDLVTGG | 2.18
IVCLHDSISEEGFHYLVFDLVTGG | 2.03
IVRLHDSISEEGFHYLVFPLVTGG | 3.21
IVRLHDSISEEGFHYLEFDLVTGG | 1.69
IMRLHDSISEEGFHYLVFDLVTGG | 1.93
IVRLHDSISEEGFHYYVFDLVTGG | 2.98
IVRLHDSISEEGFHYNVFDLVTGG | 1.5
IVRLHDSISEEGFMYLVFDLVTGG | 2.25
IVRQHDSISEEGFHYLVFDLVTGG | 1.69
IVRLHDSISEEGFHYLVFDLVTEG | 3.03
IVRLHDSISEEGFHYLIFDLVTGG | 2.58
IVRHHDSISEEGFHYLVFDLVTGG | 2.53
IVRLHDSESEEGFHYLVFDLVTGG | 1.44
IVYLHDSISEEGFHYLVFDLVTGG | 2.58
FVRLHDSISEEGFHYLVFDLVTGG | 1.06
IVRLHDSISEEGHHYLVFDLVTGG | 1.62
IVRLHDSISEEGFHYLVFDLVEGG | 2.96
IERLHDSISEEGFHYLVFDLVTGG | 2.3
IVRLHDSISEEGFHYLVFQLVTGG | 2.4
IVRLHDSISEEGFHYLVFDLDTGG | 3.2
IVRLHDSISREGFHYLVFDLVTGG | 2.65
IVRLHDSISKEGFHYLVFDLVTGG | 2.7

Variant | protein stability index
IVRLHDSISEEGFHYPVFDLVTGG | 1.74
IVRLHDSISEEGFHYLVFDLVTQG | 2.59
IVRLHDSISEEGFHYLVFDLVTRG | 2.53
IVRSHDSISEEGFHYLVFDLVTGG | 1.9
IVRLYDSISEEGFHYLVFDLVTGG | 3.23
IVRLHDSISEEGFHYLVFDLVIGG | 2.22
IVRLHDSYSEEGFHYLVFDLVTGG | 3.84
IVRLHDSISEEGFHQLVFDLVTGG | 1.58
IVRLHDNISEEGFHYLVFDLVTGG | 3.29
IVRLHDSISEEGFHYLVDDLVTGG | 2.67
IVRLHDSASEEGFHYLVFDLVTGG | 2.21
IVRLHDSISEEGTHYLVFDLVTGG | 3.34
IVRLHDSISIEGFHYLVFDLVTGG | 3.06
IVRLHDSISEEGFHKLVFDLVTGG | 2.76
IVRLFDSISEEGFHYLVFDLVTGG | 3.15
IVRLHDSISEEGFHYLVQDLVTGG | 1.33
IVRLHDSISTEGFHYLVFDLVTGG | 3.29
NVRLHDSISEEGFHYLVFDLVTGG | 1.75
IVRLHDEISEEGFHYLVFDLVTGG | 2.24
IVRLHDSISEEGFHYLVPDLVTGG | 2.13
IVRLHDSISEEGFHYLVFDLVTWG | 2.89
IVRLHDSISEEGFHYLVFMLVTGG | 3.68
IVRLHDSISEEGFHYLVFDLVTGF | 1.57

Variant | protein stability index
IVRLHDSISEEGFHYLVFDLGTGG | 3.19
IVRLHDSISEEGFHYLVRDLVTGG | 1.79
IVRLHDAISEEGFHYLVFDLVTGG | 3.35
IVRLHDSISEQGFHYLVFDLVTGG | 2.06
IVRLHDSISEEGFHYGVFDLVTGG | 2.17
IVRLHDSISEEGLHYLVFDLVTGG | 2.02
IVRLHDSISEEGFHYLVFDQVTGG | 2.52
IVRLHDSISEEGFHELVFDLVTGG | 1.7
IVRLHDSISEEGFHYLVFDLVCGG | 3.58
IVRLHDSISEEGFHYLVFILVTGG | 2.4
IVRLHDSISEEGFHYLVFDGVTGG | 1.93
IVRLHDMISEEGFHYLVFDLVTGG | 3.09
IVRLHDSISEESFHYLVFDLVTGG | 3.25
IVRLKDSISEEGFHYLVFDLVTGG | 4.72
SVRLHDSISEEGFHYLVFDLVTGG | 3.07
IVRLPDSISEEGFHYLVFDLVTGG | 3.91
IVRLHDSISEEGFHYLVFDLVMGG | 2.02
IVRLHDSIKEEGFHYLVFDLVTGG | 2.84
IVRLHTSISEEGFHYLVFDLVTGG | 4.86
IVRLHDSISEEGFHYLVFDAVTGG | 2.13
IVRLHDSISEEGFHYLVTDLVTGG | 2.1
IVRLHDSISEEGFHYEVFDLVTGG | 1.57
IVRLHDSISEEGKHYLVFDLVTGG | 1.43

Variant | protein stability index
IVRLHDSISEEGFHYLVKDLVTGG | 2.17
IVRLHDSISEEGFHYLHFDLVTGG | 2.93
IVRLHDSISEEGFHYLVLDLVTGG | 2.51
IVRLHDSISEEGFHYLSFDLVTGG | 3.19
IVRLHDQISEEGFHYLVFDLVTGG | 2.4
IVRLHDSISYEGFHYLVFDLVTGG | 2.83
IVGLHDSISEEGFHYLVFDLVTGG | 2.41
IVRLHDSISEEGFHYLVFWLVTGG | 1.91
IVRLHDSISEEGFHYLVFDKVTGG | 2.41
IVRLHDSISEEGAHYLVFDLVTGG | 1.76
IVRLHDSISEPGFHYLVFDLVTGG | 2.13
IVRLHDSISEEGFHYLVFDPVTGG | 1.86
IVRLHDSISEEGFHDLVFDLVTGG | 1.89
IVRLHDSCSEEGFHYLVFDLVTGG | 2.85
IVRLHDSISEEGFDYLVFDLVTGG | 1.85
IVRLHDSISEEGFHYLVFDSVTGG | 1.45
IVRLHDSISEEGFHPLVFDLVTGG | 1.75
IVRLHDSISEFGFHYLVFDLVTGG | 3.42
IVRFHDSISEEGFHYLVFDLVTGG | 2.4
IVRLHDSISEEGYHYLVFDLVTGG | 3.07
IVRLHDSISAEGFHYLVFDLVTGG | 3.84
IVRLHDSIEEEGFHYLVFDLVTGG | 3.35
